Marks after values point to notes of the source that are not given here.
Key:
A2Kb transgenic mouse = test: Immunogenicity of PSMA derived peptides in A2Kb transgenic mice (51Cr-release CTL assay); type: in vivo; conditions: 100.0 μg peptide + I-Ab-restricted peptide in IFA s.c.; splenocytes re-stimulated 6-7 days; 4 hr 51Cr-release vs peptide-pulsed P815-A2Kb targets
Protocol: The A2Kb transgenic mouse was used to assess the immunogenicity of the HLA-A0201 binding PSMA peptides. Mice of the B1O background (transgenic for the A2Kb chimeric gene) were purchased from the Scripps Clinic in California, USA. Mice were injected subcutaneously at the base of the tail with a dose of inoculum prepared by emulsifying 100.0 μg of the test peptide and 100.0 μg of an I-A^b-restricted peptide (described in Milich, D. R. et al. (1987) J. Immunol 139: 1223-1231) in incomplete Freund's adjuvant (IFA). Spleens of the experimental animals were collected on the 10th or 11th day post immunization. Spleenocytes of the experimental mice were prepared and cultured to enrich for CTLs before being assessed for effector activity. In vitro re-stimulation of the in vivo generated CTLs was performed by co-culturing in a 25 cm^2 tissue culture flask 3×10^7 responder cells (i.e. spleenocytes) with 1.3×10^7 irradiated autologous LPS (lipopolysaccharide)-blasts which had been pulsed with the respective peptide (100.0 μg per 10^8 cells). Cultures were kept in a 37° C., humidified CO2 incubator for 6-7 days before being tested for effector function in a standard 4 hr in vitro ^51Cr-release CTL assay as follows. […] Supernatant aliquots were then removed and counted for radioactivity.

[1] = target: T1, HLA-A0201 molecules on T2 cells (Homo sapiens, UniProt P04439, D140Y/D185E/D98H/E176V/E277Q/G131W/G231S/I119V/I121R/I166T/I218V/L300P/L318F/N151K/N90K/P208A/P217A/Q86G/Q94H/R138H/R169H/T345S); test: HLA-A0201 binding/stabilization of PSMA derived peptides on T2 cells (BB7.2 flow cytometry); type: cell-based; conditions: for Fluorescence Index (FI): T2 cells; for HLA-A0201 binding as judged by Fluorescence Index (FI) values: membrane-bound HLA-A0201 on T2 cells, result in words
T1 construct: endogenous in cells; host or cells: T2 cell line (Dr. Peter Creswell, Yale University)
Protocol: The ability of the PSMA derived peptides described in Table 1 to stabilize membrane-bound HLA-A0201 molecule was assessed utilizing the T2 cell line (Dr. Peter Creswell, Yale University). The cell line has been well documented to have a defective TAP (i.e. Transporter for Antigen Processing) transporter function. […] The stability of the surface HLA-A0201 molecules can be restored upon interaction with suitable exogenous peptides. The stabilization of the conformation of the class 1 MHC molecules is accompanied by the formation of an immunodominant epitope recognized by a mouse monoclonal antibody (designated BB7.2; American Type Culture Collection (ATCC)). Thus, the detection of this specific epitope is indicative of stable membrane-bound HLA-A0201 molecules loaded with peptide.
T2 cells were propagated in Iscove's complete medium (Iscove's medium supplemented with 10% heat-inactivated bovine serum, 120.0 units per ml of penicillin G sodium, 120 μg per ml of streptomycin sulphate, and 0.35 mg per ml of L-glutamine). The ability of PSMA peptides (Table 1) to bind and stabilize surface HLA-A0201 molecules on T2 cells was determined utilizing a protocol documented in the art (Deng, Y. (1997) J Immunol 158:1507-1515). In essence, 0.5×10^6 T2 cells were incubated with 125.0 μM of the test peptide in 200.0 μl of serum-free culture medium (Iscove's medium supplemented with 120.0 units per ml of penicillin G sodium, 120.0 μg per ml of streptomycin sulphate and 0.35 mg per ml of L-glutamine) overnight at 37° C. Subsequently, cells were washed twice with Iscove's medium (without bovine serum) to remove free PSMA peptide. To the cell pellet was added 1.0 ml of complete Iscove's medium (supplemented with fetal bovine serum (10% final)) containing 5.0 μg per ml of brefeldin A (Sigma), 12.5 μg per ml of anisomycin (Sigma) and 5.0 μg per ml of cyclohexamide (Sigma). […] The cells were subsequently incubated 30 min on ice prior to two washes with ice-cold PBA (phosphate buffered saline (pH 7.2) containing 2.0% bovine serum). 100.0 μl of PBA containing 5.0 μg of monoclonal antibody BB7.2 was added to each test sample. The reaction was allowed to proceed on ice for 45 min. Cells were then washed three times with ice-cold PBA. The binding of BB7.2 was detected via the addition of 100.0 μl of PBA containing 1.0 μg of goat anti-mouse IgG-Fc fluorescein (FITC) conjugate (BETHYL Laboratories Inc.). After a 30 min incubation on ice, cells were twice washed with ice-cold PBA, and twice with ice-cold PBS (pH 7.2). Cells were immediately fixed by the addition of 50.0 μl of 1.0% paraformaldehyde. Samples were analyzed by Flow Cytometry. Results were expressed in units of Fluorescence Index (FI), calculated by the equation: [formula]
An FI value of 0.5 or greater was deemed to be significant.

[2] = 125.0 μM test peptide, overnight at 37° C., then 3.0 hr de-stabilization step, FI of 0.5 or greater deemed significant

Sequence | Fluorescence Index (FI) [1, 2] | HLA-A0201 binding as judged by Fluorescence Index (FI) values [1] | further results
ALFDIESKV (CLP337) [CLP-337, PSMA derived peptide, amino acid position 711-719] | – | – | Immunogenicity: epitope-specific CTL responses (FIG. 1) (A2Kb transgenic mouse): immunogenic and capable of eliciting epitope-specific CTL responses
ELAHYDVLL (CLP330) [CLP-330, PSMA derived peptide, amino acid position 109-117] | 0.7 | demonstrated HLA-A0201 binding | –
LDSVELAHY (CLP324) [CLP-324, reference compound] | – | does not exhibit binding | Fluorescence Index (FI) ([1]; 125.0 μM peptide, analysis did not include 3 hr de-stabilization step): 0**
LLHETDSAV [CLP-326] | – | demonstrated HLA-A0201 binding | –
WLCAGALVL (CLP327) [CLP-327, PSMA derived peptide, amino acid position 20-28] | 0 | – | –

Second part, led by results:

Fluorescence Index (FI) [1, 2] | HLA-A0201 binding as judged by Fluorescence Index (FI) values [1] | Sequence | further results
– | demonstrated HLA-A0201 binding | LMYSLVHNL [CLP-333] | –
– | demonstrated HLA-A0201 binding | MMNDQLMFL [CLP-336] | Immunogenicity: epitope-specific CTL responses (FIG. 1) (A2Kb transgenic mouse): immunogenic and capable of eliciting epitope-specific CTL responses
0 | – | NLNGAGDPL [CLP-331] | –
0 | – | NMKAFLDEL [CLP-329] | –
0 | – | PMFKYHLTV [CLP-334] | –
1.3 | demonstrated HLA-A0201 binding | VLAGGFFLL (CLP328) [CLP-328, PSMA derived peptide, amino acid position 27-35] | –
0.3 | – | VLRMMNDQL [CLP-335] | –

— patent US20030027246A1, “Immunogenic peptides derived from prostate-specific membrane antigen (PSMA) and uses thereof” (priority 2000, published 2003)
